Measured values reported in article PMC2190585 (The Journal of Cell Biology, 2000).

Target: T1, COOH-terminal domain of Numb (aa 298–603), purified (human, UniProt P49757-2 298-603)
T1 sequence (looked up): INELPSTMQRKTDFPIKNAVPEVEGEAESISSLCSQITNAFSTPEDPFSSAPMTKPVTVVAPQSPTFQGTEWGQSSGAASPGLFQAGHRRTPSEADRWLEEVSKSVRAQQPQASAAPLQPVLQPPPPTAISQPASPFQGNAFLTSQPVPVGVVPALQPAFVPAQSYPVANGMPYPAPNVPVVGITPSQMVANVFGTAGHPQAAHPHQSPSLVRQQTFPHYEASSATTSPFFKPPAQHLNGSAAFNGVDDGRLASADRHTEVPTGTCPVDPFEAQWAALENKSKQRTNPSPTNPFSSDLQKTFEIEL
Experiment: pull-down

binding result: binds
B1: GST–α ear (GST fusion protein containing aa 715–977 of the mouse α adaptin) (domain or fragment, UniProt P17426 715-977, looked up)
chain: PMALLADPAPAADPGPEDIGPPIPEADELLNKFVCKNSGVLFENQLLQIGVKSEFRQNLGRMYLFYGNKTSVQFQNFLPTVVHPGDLQTQLAVQTKRVAAQVDGGAQVQQVLNIECLRDFLTPPLLSVRFRYGGTAQSLTLKLPVTINKFFQPTEMAAQDFFQRWKQLSLPLQEAQKIFKANHPMDAEVTKAKLLGFGSALLDNVDPNPENFVGAGIIQTKALQVGCLLRLEPNAQAQMYRLTLRTSKEPVSRHLCELLAQQF
